For the test, the target named is recombinant microtubule-associated protein Tau (Homo sapiens (Human)) (UniProt P10636).

Drawing on US20050261475A1, this text covers in vitro phosphorylation, stoichiometry; MALDI-TOF MS of tryptic peptides (phosphates per Tau molecule) for one substance.

“purified active CDK5/p25 complex (enzyme)”: the in vitro phosphorylation, stoichiometry; MALDI-TOF MS of tryptic peptides (phosphates per Tau molecule) was found to be 0.5.
